We go through 2 molecules from publication PMC8879280, “A Low-Activity Polymorphic Variant of Human NEIL2 DNA Glycosylase”.

In series [1] the target is T1, hNEIL2 R103W R103W (Homo sapiens) (UniProt Q969S2).
T1 sequence: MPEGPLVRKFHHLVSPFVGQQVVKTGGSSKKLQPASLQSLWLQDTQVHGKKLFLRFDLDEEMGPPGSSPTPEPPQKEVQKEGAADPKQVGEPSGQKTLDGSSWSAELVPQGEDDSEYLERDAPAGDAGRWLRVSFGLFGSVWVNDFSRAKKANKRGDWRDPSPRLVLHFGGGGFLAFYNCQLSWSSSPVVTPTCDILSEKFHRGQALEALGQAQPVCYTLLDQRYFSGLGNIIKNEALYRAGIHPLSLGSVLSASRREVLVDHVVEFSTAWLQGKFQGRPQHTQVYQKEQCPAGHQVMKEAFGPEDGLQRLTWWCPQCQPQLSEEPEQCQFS
The series can be described thus: EMSA. As to conditions: THF (AP site analog) at position 21 of strand 1 (N); 25 mM potassium phosphate pH 7.5, 5 mM MgCl2, 1 mM DTT, 0.5 mg/mL BSA, 10% glycerol; 35 nM bubble or 100 nM duplex ligand; 5 min on ice, 8% native PAGE at 4 C. A general note: In EMSA bound probe runs differently from free probe, usually more slowly.

The target in a further series is T2, hNEIL2 WT (Homo sapiens) (UniProt Q969S2).
T2 sequence: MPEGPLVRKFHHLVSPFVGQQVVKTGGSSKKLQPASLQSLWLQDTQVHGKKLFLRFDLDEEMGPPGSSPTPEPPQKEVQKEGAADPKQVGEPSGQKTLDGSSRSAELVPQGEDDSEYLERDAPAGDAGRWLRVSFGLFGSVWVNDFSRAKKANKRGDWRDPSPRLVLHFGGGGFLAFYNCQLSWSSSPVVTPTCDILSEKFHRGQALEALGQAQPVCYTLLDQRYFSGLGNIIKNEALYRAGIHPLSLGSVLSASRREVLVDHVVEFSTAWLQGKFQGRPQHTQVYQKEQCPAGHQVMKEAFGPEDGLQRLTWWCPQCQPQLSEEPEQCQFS
The series can be described thus: EMSA. As to conditions: THF (AP site analog) at position 21 of strand 1 (N); 25 mM potassium phosphate pH 7.5, 5 mM MgCl2, 1 mM DTT, 0.5 mg/mL BSA, 10% glycerol; 35 nM bubble or 100 nM duplex ligand; 5 min on ice, 8% native PAGE at 4 C.

Series [2] addresses T3, hNEIL2 P304T P304T (Homo sapiens) (UniProt Q969S2).
T3 sequence: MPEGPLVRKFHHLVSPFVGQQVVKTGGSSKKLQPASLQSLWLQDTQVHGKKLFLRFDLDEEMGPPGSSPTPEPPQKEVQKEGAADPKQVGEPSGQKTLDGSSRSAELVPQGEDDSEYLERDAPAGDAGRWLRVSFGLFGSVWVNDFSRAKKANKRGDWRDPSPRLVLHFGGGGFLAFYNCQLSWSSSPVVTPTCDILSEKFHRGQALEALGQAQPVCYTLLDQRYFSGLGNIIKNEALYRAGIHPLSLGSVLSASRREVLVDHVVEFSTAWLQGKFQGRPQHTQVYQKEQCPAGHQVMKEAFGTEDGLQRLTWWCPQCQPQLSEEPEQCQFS
The series can be described thus: EMSA. The settings on record: THF (AP site analog) at position 21 of strand 1 (N); 25 mM potassium phosphate pH 7.5, 5 mM MgCl2, 1 mM DTT, 0.5 mg/mL BSA, 10% glycerol; 35 nM bubble or 100 nM duplex ligand; 5 min on ice, 8% native PAGE at 4 C.

In a further series the target is T4, hNEIL2 WT (Homo sapiens, UniProt Q969S2 1-332).
T4 sequence: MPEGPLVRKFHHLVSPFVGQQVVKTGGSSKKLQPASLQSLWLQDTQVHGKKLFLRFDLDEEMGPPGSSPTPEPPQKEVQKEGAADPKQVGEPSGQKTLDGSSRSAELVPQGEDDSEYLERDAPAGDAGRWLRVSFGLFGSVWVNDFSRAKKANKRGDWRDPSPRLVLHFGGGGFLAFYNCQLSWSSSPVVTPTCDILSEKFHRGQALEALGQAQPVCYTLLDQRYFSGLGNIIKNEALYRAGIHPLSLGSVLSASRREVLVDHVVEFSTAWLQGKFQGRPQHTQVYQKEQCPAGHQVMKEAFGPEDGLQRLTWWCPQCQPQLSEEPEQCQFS
The series can be described thus: EMSA; 5 mM Mg2+; apparent, sigmoidal fit; 25 mM potassium phosphate pH 7.5, 5 mM MgCl2, 1 mM DTT, 0.5 mg/mL BSA, 10% glycerol; 35 nM bubble or 100 nM duplex ligand; 5 min on ice, 8% native PAGE at 4 C. As to conditions: protein: recombinant; tags: C-terminal GHHHHHH; label: 32P; 10-nt central bubble between two 15-bp arms, blunt.

Another series has as its target T5, hNEIL2 P304T (Homo sapiens, UniProt Q969S2 1-332, P304T).
T5 sequence: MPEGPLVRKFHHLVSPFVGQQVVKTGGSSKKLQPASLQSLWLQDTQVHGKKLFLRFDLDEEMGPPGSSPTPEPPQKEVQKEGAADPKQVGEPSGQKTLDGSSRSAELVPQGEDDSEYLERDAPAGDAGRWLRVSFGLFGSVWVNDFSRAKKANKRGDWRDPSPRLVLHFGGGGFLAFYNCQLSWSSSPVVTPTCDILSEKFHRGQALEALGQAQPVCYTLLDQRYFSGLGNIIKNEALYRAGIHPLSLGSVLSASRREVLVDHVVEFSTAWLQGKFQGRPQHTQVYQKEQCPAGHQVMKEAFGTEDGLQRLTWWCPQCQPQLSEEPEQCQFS
The series is described as above. As to conditions: protein: recombinant; tags: C-terminal GHHHHHH; label: 32P; 10-nt central bubble between two 15-bp arms, blunt.

In a further series the target is T6, hNEIL2 R103W (Homo sapiens, UniProt Q969S2 1-332, R103W).
T6 sequence: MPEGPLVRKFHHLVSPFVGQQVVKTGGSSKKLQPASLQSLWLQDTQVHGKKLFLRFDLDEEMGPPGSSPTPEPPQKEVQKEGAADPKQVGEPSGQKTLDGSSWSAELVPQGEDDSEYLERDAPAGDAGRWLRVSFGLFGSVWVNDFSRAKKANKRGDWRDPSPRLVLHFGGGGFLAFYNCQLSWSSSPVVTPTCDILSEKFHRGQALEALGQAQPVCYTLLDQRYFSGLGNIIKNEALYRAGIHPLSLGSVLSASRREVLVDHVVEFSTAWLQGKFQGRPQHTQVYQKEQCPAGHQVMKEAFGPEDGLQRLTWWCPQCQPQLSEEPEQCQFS
Described as above. The settings on record: protein: recombinant; tags: C-terminal GHHHHHH; label: 32P; 10-nt central bubble between two 15-bp arms, blunt.

Take “CCTGCATGGGCGGCAGAACTNGAGGCCATCCTCACCATCC / GGATGGTGAGGATGGGAGGTTCCCTTGCCGCCCATGCAGG [40F//40bubble (THF bubble)]”: the K half in series [1] worked out at 10.4 µM; with hNEIL2 WT (Homo sapiens), 1000 nM; in series [2], 6.4 µM.

B1: 40C//40bubble (undamaged bubble) (dsDNA)
DNA 1: CCTGCATGGGCGGCAGAACTCGAGGCCATCCTCACCATCC
DNA 2: GGATGGTGAGGATGGGAGGTTCCCTTGCCGCCCATGCAGG
With B1, the results for the “apparent K (half saturation)” value with hNEIL2 WT, in the series with hNEIL2 P304T and with hNEIL2 R103W were 1000 ± 100 nM, 7 ± 0.3 µM and 11.7 ± 0.7 µM, respectively.
